Source: patent publication US20210285971A1 (ROYAL INSTITUTION FOR THE ADVANCEMENT OF LEARNING MCGILL …, published 2021)

What was measured:
synthetic Aβ34 peptide = biological target: T1, synthetic Aβ34 peptide; assay: SPR (Biacore T200), multi-cycle titration of Aβ34 (0-1.6 µM, 3-fold series) over mab34 captured on an anti-mouse Fc sensor; steady-state affinity fit of Requilibrium against concentration
T1 construct: Synthetic peptide from PSL, Germany
Procedure: Using a BIACORE T200 system (GE Healthcare Bio-Sciences AB, Upsala, Sweden; v2.0 Control and v1.0 Evaluation software), SPR experiments were performed at 25° C. using filtered (0.2 μm) and degassed HBS-EP+ buffer (10 mM HEPES pH 7.4; 150 mM NaCl; 3 mM EDTA; 0.05% (v/v) Tween™-20). Using Biacore's Amine Coupling Kit, Mouse Antibody Capture Kit, and CM5 sensors, an anti-mouse Fc antibody (14 μg/mL in 10 mM sodium acetate pH 5.0) was immobilized to the flow cells (8000 RU each) as recommended by GE. […] Between each sample series, surfaces were regenerated at 50 μL/min. using two 30 sec pulses of Pierce Gentle Ag/Ab Elution Buffer pH 6.6 (Thermo Scientific #21027) as well as 10 mM glycine pH 1.7.

[1] = biological target: Aβ34 G33A variant (G33A modified neo-epitope); assay: SPR (Biacore T200), single-cycle kinetics, Aβ34 variant peptide as analyte (7.8-2000 nM) over mab34 captured on an anti-mouse Fc sensor
Procedure: (§1) Using a BIACORE T200 system (GE Healthcare Bio-Sciences AB, Upsala, Sweden; v2.0 Control and v1.0 Evaluation software), SPR experiments were performed at 25° C. using filtered (0.2 μm) and degassed HBS-EP+ buffer (10 mM HEPES pH 7.4; 150 mM NaCl; 3 mM EDTA; 0.05% (v/v) Tween™-20). Using Biacore's Amine Coupling Kit, Mouse Antibody Capture Kit, and CM5 sensors, an anti-mouse Fc antibody (14 μg/mL in 10 mM sodium acetate pH 5.0) was immobilized to the flow cells (8000 RU each) as recommended by GE. To assess binding specificity, a variety of Aβ peptides (0 2 μM; 4-fold dilution series) were titrated over reference (anti-mouse Fc antibody only) and active (1000 RU mab34 captured to anti-mouse Fc antibody) surfaces in single-cycle kinetic mode (25 uL/min.×5 min. association+10 min. dissociation). Between each sample series, surfaces were regenerated at 50 μL/min. using two 30 sec pulses of Pierce Gentle Ag/Ab Elution Buffer pH 6.6 (Thermo Scientific #21027) as well as 10 mM glycine pH 1.7.

synthetic Aβ40 peptide = biological target: T2, synthetic Aβ40 peptide (UniProt P05067 672-711); assay: SPR (Biacore T200), single-cycle kinetics, peptide as analyte (7.8-2000 nM) over mab34 captured on an anti-mouse Fc sensor
T2 construct: domain: Aβ40
Procedure: as §1

synthetic Aβ42 peptide = biological target: T3, synthetic Aβ42 peptide (UniProt P05067 672-713); assay: as above
T3 construct: domain: Aβ42; also called Abeta42
Procedure: as §1

synthetic Aβ35 peptide = biological target: T4, synthetic Aβ35 peptide (UniProt P05067 672-706); assay: as above
T4 construct: domain: Aβ35
Procedure: as §1

synthetic Aβ38 peptide = biological target: T5, synthetic Aβ38 peptide (UniProt P05067 672-709); assay: as above
T5 construct: domain: Aβ38
Procedure: as §1

T2 sequence (P05067 672-711 limits assumed): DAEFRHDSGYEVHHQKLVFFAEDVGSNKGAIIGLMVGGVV
T1 sequence (peptide, as listed by the source): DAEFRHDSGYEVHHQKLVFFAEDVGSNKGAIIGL
Aβ34 G33A variant (G33A modified neo-epitope), sequence (peptide, as listed by the source G33A G33A G33A G33A): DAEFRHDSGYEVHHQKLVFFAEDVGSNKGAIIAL
T4 sequence (P05067 672-706 limits assumed): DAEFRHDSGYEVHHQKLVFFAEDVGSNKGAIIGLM
T5 sequence (P05067 672-709 limits assumed): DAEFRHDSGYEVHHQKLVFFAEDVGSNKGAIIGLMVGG
T3 sequence (P05067 672-713 limits assumed): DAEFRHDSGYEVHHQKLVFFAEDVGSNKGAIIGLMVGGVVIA

Kd (synthetic Aβ34 peptide): ~40 nM
binding result [1]: no binding (tested: 2000 nM)
binding result (synthetic Aβ40 peptide): no binding (tested: 2000 nM)
binding result (synthetic Aβ42 peptide): no binding (tested: 2000 nM)
binding result (synthetic Aβ35 peptide): no binding (tested: 2000 nM)
binding result (synthetic Aβ38 peptide): no binding (tested: 2000 nM)
B1: mab34 (monoclonal neo-epitope anti-Aβ34 antibody) (antibody, V domains shown)
VH: VKLVESGGGLVKPGGSLKLSCAASGFTFSTYAMSWVRQTPEKRLEWVASISSGGNTYYPDSVKGRFTISRDNARHILYLQMSSLRSEDTAMYYCARDSYYFGNSVYYAMDYWGQGTSVTVSS
VL: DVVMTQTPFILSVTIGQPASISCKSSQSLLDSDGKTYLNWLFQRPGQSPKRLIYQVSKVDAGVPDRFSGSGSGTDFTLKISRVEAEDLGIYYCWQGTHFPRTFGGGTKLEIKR
notes: Mouse monoclonal from a hybridoma (Balb/cJ mice immunised with Aβ27-34-KLH); In SPR it was captured on an anti-mouse Fc surface
